Test results taken from article PMC8131606.
Each block holds one substance with its values, some of them ahead of it.

Key:
[1] = target: F1 (F228A) opsin (bovine) (UniProt P02699)
[2] = target: F2 (F221A, F228A) opsin (bovine) (UniProt P02699)
[3] = target: F3 (F220C, F221A, F228A) opsin (bovine) (UniProt P02699)
[4] = target: WT opsin (thermostable bovine opsin with C-terminal 3X-FLAG tag) (bovine) (UniProt P02699)

- ratio of mono-exponential fit constants α(construct)/αWT from scramblase-based analysis of reconstitution into vesicles [1]: 1
Substance: F1 (F228A) opsin (from UniProt P02699 1-348) (receptor)

- ratio of mono-exponential fit constants α(construct)/αWT from scramblase-based analysis of reconstitution into vesicles [2]: 1
Substance: F2 (F221A, F228A) opsin (from UniProt P02699 1-348) (receptor)

- ratio of mono-exponential fit constants αF3/αWT from scramblase-based analysis of reconstitution into vesicles [3]: 0.4
Substance: F3 (F220C, F221A, F228A) opsin (from UniProt P02699 1-348) (receptor)

- mono-exponential fit constant (α) of p(≥ 1) scramblase versus PPR* after reconstitution of purified opsin into vesicles [4]: 0.25
Substance: WT opsin (thermostable bovine opsin with C-terminal 3X-FLAG tag) (from UniProt P02699 1-348) (receptor)
